Consider four molecules from patent publication US20120219503A1 (GENE TECHNO SCIENCE, published 2012).

Assay [1] deals with T1, hOPN5-BSA (also: conjugated to BSA, coupling site not given here).
T1 construct: RGD-containing synthetic peptide coupled to the carrier BSA and coated on ELISA or adhesion plates
T1 peptide: CVDTYDGRGDSVVYGLRS
Nature of the assay: ELISA, hOPN5-BSA coated on the plate. As to the method:
(§1) Binding of Ch33E10 and Hu33E10-VH1/VL6 IgG1/κ antibodies to hOPN5-BSA was examined by ELISA. As an antigen, synthetic oligopeptide ([…] provided by Gene Techno Science) conjugated to bovine serum albumin (hOPN5-BSA) was used. In a typical experiment, an ELISA plate was coated with 100 μl/well of 1 μg/ml hOPN5-BSA in 0.2 M Na₂CO₃ buffer (pH 9.4) overnight at 4° C., washed with Wash Buffer, and blocked with 300 μl/well of Blocking Buffer for 1 hr at room temperature. After washing with Wash Buffer, samples appropriately diluted in ELISA Buffer were applied at 100 μl/well in the ELISA plate. After incubating the ELISA plate overnight at 4° C. and washing with Wash Buffer, bound antibodies were detected using 100 μl/well of 1/2,000-diluted HRP-conjugated goat anti-human γ chain polyclonal antibody (SouthernBiotech). After incubating for 1 hr at room temperature and washing with Wash Buffer, color development was performed by adding 100 μl/well of ABTS substrate and stopped with 100 μl/well of 2% oxalic acid. Absorbance was read at 405 nm.
Binding of Hu33E10-VH5/VL6, Hu33E10-VH7/VL6 and Hu33E10-VH7.8/VL6 antibodies to hOPN5-BSA was compared to that of Ch33E10 by ELISA as described in Section 5. […] In repeated experiments, Hu33E10-VH7/VL6 and Hu33E10-VH7.8/VL6 behaved similarly to each other for binding to hOPN5-BSA.

Assay [2] has as its target T1, hOPN5-BSA. In words: ELISA, hOPN5-BSA coated on the plate (conclusion). (An ELISA detects its analyte on a solid surface through an enzyme-linked reagent.)
For assay [3], the target named is T1, hOPN5-BSA. In words: ELISA, hOPN5-BSA coated on the plate, two independent experiments. Here is the method:
FIGS. 21A & 21B show ELISA analysis of the binding of Ch33E10 and Hu33E10-VH7/VLv2 IgG1/κ antibodies to hOPN5-BSA. Purified Ch33E10 and Hu33E10-VH7/VLv2 antibodies were tested at various concentrations, starting at 200 μg/ml (FIG. 21A) or 100 μg/ml (FIG. 21B) and serial 2-fold dilutions, for binding to hOPN5-BSA. The results of two independent experiments in duplicate (FIGS. 21A & 21B) are shown.
as §1, with “After incubating for 1 hr at room temperature and washing with Wash Buffer, color development was performed by adding 100 μl/well of ABTS substrate and stopped with 100 μl/well of 2% oxalic acid.” left out, “nm. […]” for “nm.”

No end group written: not given here. Some results are limits rather than exact numbers.

B1: Hu33E10-VH1/VL6 IgG1/κ antibody (antibody, V domains shown)
VH: EVQLVESGGGLVQPGGSLRLSCAASGFTFTDYYMIWVRQAPGKGLEWLGFIRNKANGYTTEYSASVKGRFTISRDNAKNSLYLQMNSLRAEDTAVYYCARGAYWGQGTMVTVSS
VL: DIVMTQSPLSLPVTPGEPASISCRSSQSIVHSNGNTYLEWYLQKPGQSPQLLIYRVSNRFSGVPDRFSGSGSGTDFTLKISRVEAEDVGVYYCFQGSFVPWTFGQGTKVEIK
notes: Human IgG1/κ form; also called product of NS0-Hu33E10-2 #22
Consider B1, for which the “fold weaker binding than Ch33E10” value with hOPN5-BSA [1] is ~100 fold.

B2: Hu33E10-VH7/VLv2 IgG1/κ antibody (antibody, V domains shown)
VH: EVQLVESGGGLVQPGGSLRLSCAASGFTFTDYYMIWVRQAPGKGLEWLGFIRNKANGYTTEYSASVKGRFTISRDNAKSILYLQMNSLRAEDTAVYYCARGAYWGQGTMVTVSS
VL: DIVMTQSPDSLAVSLGERATISCRSSQSIVHSNGNTYLEWYLQKPGQPPKLLIYRVSNRFSGVPDRFSGSGSGTDFTLTISSLQAEDVAVYYCFQGSFVPWTFGQGTKVEIKR
notes: also called SP2-1; SP-2
With B2, in the assay with hOPN5-BSA [2], the “fold difference of affinity from Ch33E10” value is ≤ 3 fold. The “fold difference of binding affinity from Ch33E10” value with hOPN5-BSA [3] is ≤ 2 fold.

B3: Hu33E10-VH7.8/VL6 IgG1/κ antibody (antibody, V domains shown)
VH: EVQLVESGGGLVQPGGSLRLSCAASGFTFTDYYMIWVRQAPGKGLEWLGFIRNKANGYTTEYSASVKGRFTISRDNSKSILYLQMNSLRAEDTAVYYCARGAYWGQGTMVTVSS
VL: DIVMTQSPLSLPVTPGEPASISCRSSQSIVHSNGNTYLEWYLQKPGQSPQLLIYRVSNRFSGVPDRFSGSGSGTDFTLKISRVEAEDVGVYYCFQGSFVPWTFGQGTKVEIKR
notes: also called EJ3-1-1; product of NS0-Hu33E10-5 1E5 (EJ3-3 1E5)
As to B3, the “fold lower affinity than Ch33E10” value with hOPN5-BSA [1] is ~3 fold.

B4: Ch33E10 (chimeric 33E10 IgG1/κ antibody) (antibody, V domains shown)
VH: EVKLVESGGGLVQPGGSLSLSCAASGFTFTDYYMIWVRQPPGKALEWLGFIRNKANGYTTEYSASVKGRFTISRDNSQSILYLQMNALRAEDSATYYCARGAYWGQGTLVTVSA
VL: DVLMTQTPLSLPVSLGDQASISCRSSQSIVHSNGNTYLEWYLQKPGQSPKLLIYRVSNRFSGVPDRFSGSGSGTDFTLKISRVEAEDLGVYYCFQGSFVPWTFGGGTKLEIK
notes: also called product of NS0-Ch33E10 2C11 (L4-2C11)
For the molecule B4, in the assay with hOPN5-BSA [1], the binding result is on record as “binds”.
